Laboratory results taken from patent publication US20140363427A1 (CRUCELL HOLLAND B V, published 2014).

How the values were obtained:
[1] = target: native RSV F protein from the RSV A2 strain (Respiratory Syncytial Virus strain A2, UniProt P03420 26-574); experiment: cell-based or functional assay
[2] = target: T1, recombinant RSV F protein, strain A2, extracellular domain (Respiratory Syncytial Virus strain A2, UniProt P03420 26-524); experiment: ELISA, purified Fab, estimated EC50
T1 construct: also called RSV F1 lysate (recombinant); RSV F lysate

B1: Fab 14G3 (Fab, V domains shown)
VH: QVQLQESGPGLVKPSQTLSLTCTVSGASISSDNHYWSWIRQPPGKGLEWIASIYYTGGTNYNPSLKSRLALSIDTSGDQFSLKLSSVTAADTAVYYCVRGLFFITARPYWYFDLWGRGTLVAVSS
VL: DVVMTQTPLSLSVTPGEPASISCRSSQSLLDSDDGNTYLDWYLQKPGQSPQLLIYTLSYRASGVPDRFSGSGSGTDFTLKISRVEADDVGIYYCMQRMEFPFTFGQGTRLDIKR
ED50, plaque reduction, RSV A2 [1]: 3.4 nM
ED50, plaque reduction, RSV A2 (mass concentration) [1]: 172 ng/mL
EC50 [2]: 8.2 nM
